Measurements as given in patent publication US20070286858A1 (Pfizer, published 2007).

Assays:
murine RAGE, full length = molecular target: T1, murine RAGE, full length (mouse, UniProt Q62151 23-402); experiment: cell-based ELISA, 293 cells transfected with murine RAGE
T1 construct: Expressed on 293 cells; also called mRAGE; 293-murine RAGE
T1 chain: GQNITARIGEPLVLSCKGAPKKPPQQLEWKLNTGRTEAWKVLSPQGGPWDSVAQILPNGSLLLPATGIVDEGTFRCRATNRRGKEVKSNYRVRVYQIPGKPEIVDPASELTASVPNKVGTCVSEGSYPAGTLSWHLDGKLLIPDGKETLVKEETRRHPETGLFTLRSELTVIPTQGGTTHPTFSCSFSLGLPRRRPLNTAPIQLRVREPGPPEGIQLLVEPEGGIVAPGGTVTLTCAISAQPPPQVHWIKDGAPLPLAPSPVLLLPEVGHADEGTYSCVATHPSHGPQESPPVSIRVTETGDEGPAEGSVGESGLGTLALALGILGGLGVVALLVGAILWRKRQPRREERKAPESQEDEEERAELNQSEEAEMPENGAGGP
Description: (§1) Human embryonic kidney 293 cells (American Tissue Type Culture, Manassas, Va.) cells were plated at 5×10⁶ cells per 10 cm² tissue culture plate and cultured overnight at 37° C. The next day cells were transfected with RAGE expression plasmids (pAdori1-3 vector encoding mouse, human, baboon, cynomologus monkey or rabbit RAGE) using LF2000 reagent (Invitrogen, Carlsbad Calif.) at a 4:1 ratio of reagent to plasmid DNA using the manufacturers protocol. Cells were harvested 48 hrs post-transfection using trypsin, washed once with phosphate buffered saline (PBS), then suspended in growth media without serum at a concentration of 2×10⁶ cells/ml.
(§2) Primary antibodies at 1 μg/ml were serially diluted at 1:2 or 1:3 in PBS containing 1% bovine serum albumin (BSA) in a 96-well plate. RAGE-transfected 293 cells or control parental 293 cells (50 μl) at 2×10⁶ cells/ml in serum-free growth medium were added to U-bottom 96 well plate for a final concentration of 1×10⁵ cells/well. The cells were centrifuged at 1600 rpm for 2 minutes. The supernatants were gently discarded by hand with a one-time swing and the plate was patted gently to loose the cell pellet. […] The cells were centrifuged and the supernatants are transferred to a fresh plate and read at 450 nm (Soft MAX pro 4.0, Molecular Devices Corporation, Sunnyvale, Calif.).

[1] = molecular target: T2, human RAGE-Fc fusion protein (human, UniProt Q15109 23-344); experiment: ligand competition ELISA, panel Blocks hRAGE-Fc interaction with S100-A; blocked ligand S100-A
T2 construct: also called hRAGE-Fc; huRAGE-Fc; not shown: Fc domain of human IgG

cynomolgus monkey RAGE = molecular target: T3, cynomolgus monkey RAGE (cynomolgus monkey (Macaca fascicularis), UniProt Q15109 23-404 (human entry)); experiment: cell-based ELISA, 293 cells transfected with cynomolgus monkey RAGE
T3 construct: On transfected 293 cells or endogenous in monkey lung sections; also called 293-cyno monkey RAGE; RAGE in monkey lung
T3 chain: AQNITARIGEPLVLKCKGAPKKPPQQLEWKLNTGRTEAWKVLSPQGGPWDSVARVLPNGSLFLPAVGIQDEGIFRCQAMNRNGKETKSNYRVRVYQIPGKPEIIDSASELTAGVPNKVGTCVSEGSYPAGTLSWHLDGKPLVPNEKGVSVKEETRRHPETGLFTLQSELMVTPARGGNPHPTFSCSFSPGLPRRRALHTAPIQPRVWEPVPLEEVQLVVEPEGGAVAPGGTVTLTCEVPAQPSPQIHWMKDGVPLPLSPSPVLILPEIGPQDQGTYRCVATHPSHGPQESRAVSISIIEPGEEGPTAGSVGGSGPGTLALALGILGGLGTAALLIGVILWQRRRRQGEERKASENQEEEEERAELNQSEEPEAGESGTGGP
Description: as §1, §2

[2] = molecular target: T4, murine RAGE-strep tag fusion protein (mouse, UniProt Q62151 23-343); experiment: ELISA, mRAGE-strep
T4 construct: also called mRAGE-strep; mRAGE-SA
T4 chain: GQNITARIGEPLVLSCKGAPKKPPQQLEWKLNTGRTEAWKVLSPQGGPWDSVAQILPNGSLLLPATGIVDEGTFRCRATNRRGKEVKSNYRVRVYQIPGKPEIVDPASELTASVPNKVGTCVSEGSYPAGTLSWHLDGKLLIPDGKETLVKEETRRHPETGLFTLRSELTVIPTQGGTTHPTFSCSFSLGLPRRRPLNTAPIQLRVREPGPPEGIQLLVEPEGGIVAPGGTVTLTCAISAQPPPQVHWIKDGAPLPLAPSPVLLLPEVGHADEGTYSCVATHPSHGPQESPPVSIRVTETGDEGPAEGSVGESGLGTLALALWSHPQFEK

[3] = molecular target: T2, human RAGE-Fc fusion protein; experiment: ligand competition ELISA, panel Blocks hRAGE-Fc interaction with A-beta; blocked ligand amyloid beta 1-42 peptide
baboon RAGE = molecular target: T5, baboon RAGE (baboon (Papio cyanocephalus), UniProt Q15109 23-404 (human entry)); experiment: cell-based ELISA, 293 cells transfected with baboon RAGE
T5 construct: On transfected 293 cells or endogenous in baboon lung sections; also called 293-baboon RAGE; RAGE in baboon lung
T5 chain: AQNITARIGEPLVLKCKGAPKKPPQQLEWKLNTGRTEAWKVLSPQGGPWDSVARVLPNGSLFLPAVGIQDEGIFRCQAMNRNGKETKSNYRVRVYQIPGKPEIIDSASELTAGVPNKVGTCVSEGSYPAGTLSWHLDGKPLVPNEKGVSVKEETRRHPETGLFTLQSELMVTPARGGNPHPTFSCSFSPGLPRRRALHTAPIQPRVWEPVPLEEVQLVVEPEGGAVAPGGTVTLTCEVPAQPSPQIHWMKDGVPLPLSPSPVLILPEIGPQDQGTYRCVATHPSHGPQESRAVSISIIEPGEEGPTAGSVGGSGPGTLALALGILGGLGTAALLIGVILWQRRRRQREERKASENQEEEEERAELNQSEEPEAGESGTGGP
Description: as §1, §2

EC50 (murine RAGE, full length): ~2.2 nM | IC50 (read off the curve) [1]: ~0.07 µg/mL | EC50 (cynomolgus monkey RAGE): ~2.33 nM | binding result [2]: binds | IC50 (read off the curve) [3]: ~0.2 µg/mL | EC50 (baboon RAGE): ~1.33 nM
B1: XT-M4 (antibody, rat IgG2b, V domains shown)
VH: EVQLVESGGGLVQPGRSLKLSCVVSGFTFNNYWMTWIRQTPGKGLEWVASINNSGDNTYYPDSVKDRFTISRDNAKSTLYLQMNSLRSEDTATYYCTRGGDITTGFDYWGQGVMVTVSS
VL: DIQMTQSPSSMSVSLGDTITITCRASQDVGIYVNWFQQKPGKSPRRMIYRATNLADGVPSRFSGSRSGSIYSLTISSLESEDVADYHCLEFDEHPLTFGSGTKVEIK
notes: also called 1mRAGEP3/10; rat XT-M4
